Experimental data as given in patent EP4682166A1 (Guangzhou Enmai Biotechnology Co., Ltd, dated 2026).
One block for each binder: values may come before it.

Experiments:
[1] = biological target: T1, human NMI (N-myc Interacting protein), recombinant protein (human, UniProt Q13287 1-307, limits assumed); assay: sandwich ELISA; detection 94C4-1-biotin 0.5µg/mL; hNMI 390.625 pg/mL
T1 construct: Gene ID: 9111; also called hNMI; antigen
T1 sequence (looked up): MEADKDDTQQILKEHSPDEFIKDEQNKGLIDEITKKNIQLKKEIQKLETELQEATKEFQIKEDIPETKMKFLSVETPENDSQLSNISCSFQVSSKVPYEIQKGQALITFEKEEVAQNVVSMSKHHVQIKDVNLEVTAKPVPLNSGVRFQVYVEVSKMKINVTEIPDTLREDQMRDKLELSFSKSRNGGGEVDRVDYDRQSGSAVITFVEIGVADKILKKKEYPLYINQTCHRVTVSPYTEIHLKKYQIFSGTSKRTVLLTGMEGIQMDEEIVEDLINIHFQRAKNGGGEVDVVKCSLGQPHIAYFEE

[2] = biological target: T1, human NMI (N-myc Interacting protein), …; assay: sandwich ELISA; detection 98G10-1-biotin; hNMI 1.235 ng/mL
[3] = biological target: T1, human NMI (N-myc Interacting protein), …; assay: sandwich ELISA; detection 94C4-1-biotin 0.5µg/mL; hNMI 1,562.500 pg/mL
[4] = biological target: T1, human NMI (N-myc Interacting protein), …; assay: sandwich ELISA; detection 94C4-1-biotin 0.5µg/mL; hNMI 3,125.000 pg/mL
[5] = biological target: T1, human NMI (N-myc Interacting protein), …; assay: sandwich ELISA; detection 94C4-1-biotin 1µg/mL; hNMI 50,000.000 pg/mL
[6] = biological target: T1, human NMI (N-myc Interacting protein), …; assay: sandwich ELISA; detection 39B4-1-biotin; hNMI 3.704 ng/mL
[7] = biological target: T1, human NMI (N-myc Interacting protein), …; assay: sandwich ELISA; detection 94C4-1-biotin 0.5µg/mL; hNMI 48.828 pg/mL
[8] = biological target: T1, human NMI (N-myc Interacting protein), …; assay: sandwich ELISA; detection 94C4-1-biotin 0.5µg/mL; hNMI 25,000.000 pg/mL
[9] = biological target: T1, human NMI (N-myc Interacting protein), …; assay: sandwich ELISA; detection 94C4-1-biotin 0.5µg/mL; hNMI 50,000.000 pg/mL
[10] = biological target: T1, human NMI (N-myc Interacting protein), …; assay: sandwich ELISA; detection 98G10-1-biotin; hNMI 11.111 ng/mL
[11] = biological target: T1, human NMI (N-myc Interacting protein), …; assay: sandwich ELISA; detection 94C4-1-biotin 1µg/mL; hNMI 12,500.000 pg/mL
[12] = biological target: T1, human NMI (N-myc Interacting protein), …; assay: sandwich ELISA; detection 98G10-1-biotin; hNMI 33.333 ng/mL
[13] = biological target: T1, human NMI (N-myc Interacting protein), …; assay: sandwich ELISA; detection 39B4-1-biotin; hNMI 1.235 ng/mL
[14] = biological target: T1, human NMI (N-myc Interacting protein), …; assay: sandwich ELISA; detection 98G10-1-biotin; hNMI 3.704 ng/mL
[15] = biological target: T1, human NMI (N-myc Interacting protein), …; assay: sandwich ELISA; detection 94C4-1-biotin 0.5µg/mL; hNMI 97.656 pg/mL
[16] = biological target: T1, human NMI (N-myc Interacting protein), …; assay: sandwich ELISA; detection 94C4-1-biotin 0.5µg/mL; hNMI 195.313 pg/mL
[17] = biological target: T1, human NMI (N-myc Interacting protein), …; assay: sandwich ELISA; detection 94C4-1-biotin 1µg/mL; hNMI 6,250.000 pg/mL
[18] = biological target: T1, human NMI (N-myc Interacting protein), …; assay: indirect ELISA, coated hNMI
[19] = biological target: T1, human NMI (N-myc Interacting protein), …; assay: sandwich ELISA; detection 39B4-1-biotin; hNMI 33.333 ng/mL
[20] = biological target: T1, human NMI (N-myc Interacting protein), …; assay: sandwich ELISA; detection 94C4-1-biotin 1µg/mL; hNMI 97.656 pg/mL
[21] = biological target: T1, human NMI (N-myc Interacting protein), …; assay: sandwich ELISA; detection 39B4-1-biotin; hNMI 11.111 ng/mL
[22] = biological target: T1, human NMI (N-myc Interacting protein), …; assay: sandwich ELISA; detection 94C4-1-biotin 1µg/mL; hNMI 1,562.500 pg/mL
[23] = biological target: T1, human NMI (N-myc Interacting protein), …; assay: sandwich ELISA; detection 94C4-1-biotin 1µg/mL; hNMI 781.250 pg/mL

OD450 [1]: 0.178 OD450
OD450 [2]: 0.307 OD450
OD450 [3]: 0.42 OD450
OD450 [4]: 0.712 OD450
OD450 [5]: 3.11 OD450
OD450 [6]: 0.563 OD450
OD450 [7]: 0.102 OD450
OD450 [8]: 2.71 OD450
OD450 [9]: 3.17 OD450
OD450 [10]: 1.38 OD450
OD450 [11]: 2.03 OD450
OD450 [12]: 2.48 OD450
OD450 [13]: 0.291 OD450
OD450 [14]: 0.607 OD450
OD450 [15]: 0.113 OD450
OD450 [16]: 0.134 OD450
OD450 [17]: 1.3 OD450
EC50 [18]: 0.0444 µg/mL
OD450 [19]: 2.43 OD450
OD450 [20]: 0.15 OD450
OD450 [21]: 1.25 OD450
OD450 [22]: 0.446 OD450
OD450 [23]: 0.288 OD450
B1: monoclonal antibody B-8 (antibody, V domains shown)
VH: QSLEESGGDLVKPGASLTLTCTASGFSFSSSYYMCWVRQAPGKGLEWIACIYAGSSGSTYYASWAKGRFTISKTSSTTVTLQMTSLTAADTATYFCAREYSYDDYGDFWGFNLWGPGTLVTVSS
VL: ALVMTQTPSSVSAAVGGTVTINCQASQNIYTNLAWYQQKPGQPPKLLIYGASNLESGVPSRFKGSGSGTEYTLTISDLECDDAATYYCQSSLYSRIADRANAFGGGTEVVVK
notes: Rabbit monoclonal antibody; also called B8-1

OD450 [1]: 0.268 OD450
OD450 [2]: 0.362 OD450
OD450 [3]: 0.907 OD450
OD450 [4]: 1.29 OD450
OD450 [5]: 3.1 OD450
OD450 [6]: 0.785 OD450
OD450 [7]: 0.125 OD450
OD450 [8]: 2.94 OD450
OD450 [9]: 3.33 OD450
OD450 [10]: 1.7 OD450
OD450 [11]: 2.17 OD450
OD450 [12]: 2.56 OD450
OD450 [13]: 0.35 OD450
OD450 [14]: 0.777 OD450
OD450 [15]: 0.146 OD450
OD450 [16]: 0.187 OD450
OD450 [17]: 1.47 OD450
EC50 [18]: 0.0477 µg/mL
OD450 [19]: 2.67 OD450
OD450 [20]: 0.185 OD450
OD450 [21]: 1.71 OD450
OD450 [22]: 0.568 OD450
OD450 [23]: 0.351 OD450
B2: monoclonal antibody 240B10-1 (antibody, V domains shown)
VH: QSLEESGGRLVTPGGSLTLTCTVSGIDLSSYTMGWVRQAPGKGLEYIGIISGGGRTYYASWAKGRFTISKTSSTTVDLKVTSLTTEDTATYFCARIYTLWGQGTLVTVSS
VL: QVLTQTLASVSAAVGGTVTINCQSSQSVYNNDYLAWFQQKSGQPPKQLIHSASKLASGVPSRFKGSGSGTQFTLTINDVQCDDAATYYCLGGYDCYSADCNVFGGGTEVVVK
notes: Rabbit monoclonal antibody
